Measured values reported in paper PMC9789152.
Where “and” joins values, the source holds several entries; their conditions need not be identical. Equal entries are not always repeated.

Assays:
[1] = target: S. mutans surface protein antigen I/II (Ag I/II), proline repeat working fragment (Streptococcus mutans UA159); test: cryo-TEM of self-assembly; protein stock (10 mg/mL, pH 3.5) diluted 10 times with 4 mM PBS (pH 7.4 in the methods, pH 8.0 in the results); 10 min assembly reaction, plunge-frozen
[2] = target: recombinant human amelogenin (AmH) (human); test: as above

Substance | stoichiometry N [1] | stoichiometry N [2]
S. mutans surface protein antigen I/II (Ag I/II), proline repeat working fragment (domain or fragment) | 6 monomers and 10 monomers | –
recombinant human amelogenin (AmH) (natural protein) | – | 6 monomers and 8 monomers
